From patent US20140271602, “NUCLEOTIDE-SPECIFIC RECOGNITION SEQUENCES FOR DESIGNER TAL EFFECTORS” (THE BROAD INSTITUTE INC., published 2014)
Numbering of substitutions follows the chain as printed.

Columns and labels:
Test in all cases: cell_activity; endogenous CACNA1C mRNA
Settings in all cases: tags: SID
[1] = molecular target: T1, TALE1-NN repressor (Xanthomonas (engineered), UniProt P14727 SEQ:1-983)
T1 chain: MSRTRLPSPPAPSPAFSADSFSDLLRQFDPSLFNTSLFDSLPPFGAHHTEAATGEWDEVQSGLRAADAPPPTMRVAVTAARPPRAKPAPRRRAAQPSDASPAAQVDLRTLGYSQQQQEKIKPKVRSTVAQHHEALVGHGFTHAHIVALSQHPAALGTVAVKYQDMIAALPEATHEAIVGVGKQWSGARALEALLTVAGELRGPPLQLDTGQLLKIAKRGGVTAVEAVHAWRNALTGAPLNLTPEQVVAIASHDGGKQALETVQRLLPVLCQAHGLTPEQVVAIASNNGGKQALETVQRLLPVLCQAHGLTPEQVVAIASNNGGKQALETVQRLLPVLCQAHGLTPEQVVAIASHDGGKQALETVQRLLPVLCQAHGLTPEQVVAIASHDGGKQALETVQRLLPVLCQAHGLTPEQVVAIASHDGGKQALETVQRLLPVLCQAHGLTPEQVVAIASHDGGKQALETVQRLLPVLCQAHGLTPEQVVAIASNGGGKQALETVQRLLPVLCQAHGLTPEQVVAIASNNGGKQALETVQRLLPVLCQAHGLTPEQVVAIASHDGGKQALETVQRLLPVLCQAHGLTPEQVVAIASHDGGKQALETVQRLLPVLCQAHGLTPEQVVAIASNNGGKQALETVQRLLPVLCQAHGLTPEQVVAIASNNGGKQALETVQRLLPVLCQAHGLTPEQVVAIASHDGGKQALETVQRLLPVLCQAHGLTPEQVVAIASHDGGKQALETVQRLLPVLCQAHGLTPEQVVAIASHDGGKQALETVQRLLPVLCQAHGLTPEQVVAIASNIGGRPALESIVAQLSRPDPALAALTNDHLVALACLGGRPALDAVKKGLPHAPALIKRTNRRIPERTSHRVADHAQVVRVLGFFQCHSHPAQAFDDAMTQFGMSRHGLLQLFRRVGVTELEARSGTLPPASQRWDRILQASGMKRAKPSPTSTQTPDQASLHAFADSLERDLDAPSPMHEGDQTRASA

[2] = molecular target: T2, TALE1-NH repressor (Xanthomonas (engineered), UniProt P14727 SEQ:1-983)
T2 chain: T1 chain with N287H, N321H, N525H, N627H, N661H

[3] = molecular target: T3, TALE1-NK repressor (Xanthomonas (engineered), UniProt P14727 SEQ:1-983)
T3 chain: T1 chain with N287K, N321K, N525K, N627K, N661K

B1: CACNA1C site 1 (dsDNA)
DNA 1: TCGGCCCCTGCCGGCCCA
DNA 2: TGGGCCGGCAGGGGCCGA
For B1, the activity [1] was about 4 fold repression, the activity [2] was about 4 fold repression and the activity [3] was about 2 fold repression.
